Assay results as given in the supplement of paper PMC6757056.
± gives the standard deviation of the averaged measurements.

B1: library; a variant is named by its letters at N, in order (parent)
chain: GCUGUCACCGGUGUAUUACCCUAGUGGUCGACCGGUCUGAUGAGUCUNNNNNNAGACGAAACAGC

How the values were obtained:
hypoxanthine [1] = variants of: B1; assay: normalized RNA/DNA level with ligand (relative to sTRSVctl = 100) (log10 (% of sTRSVctl)); ligand: hypoxanthine (xanthine aptamer); higher = less ribozyme self-cleavage, higher mRNA level; details: ligand concentration (+) RNA-Seq: 5 mM, HEK293T, reporter: mCherry (pCS4076), ligand present: yes
How it was run: (§1)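 HEK293T cells were transfected with library plasmids carrying ribozyme switches linked to an mCherry reporter, or an eGFP reporter in some ligand experiments, at 4 µg per well of a 6-well plate, with any ligand added 1 h beforehand. After 72 h, total RNA was extracted with EDTA, reverse-transcribed, amplified, barcoded and sequenced. RNA level was defined as RNA reads over DNA reads, normalized to a spiked-in non-cleaving sequence or to the top-ranked sequences. That value was multiplied by 100 and converted to log10, the top set was 25 sequences, and only sequences with ≥100 DNA reads were retained.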

hypoxanthine [2] = variants of: B1; assay: normalized RNA/DNA level without ligand (relative to sTRSVctl = 100) (log10 (% of sTRSVctl)); ligand: hypoxanthine (xanthine aptamer); higher = less ribozyme self-cleavage, higher mRNA level; details: HEK293T, reporter: mCherry (pCS4076), ligand present: no
How it was run: as §1

Row | Variant | normalized RNA/DNA level with ligand (log10) (hypoxanthine [1]) | normalized RNA/DNA level without ligand (log10) (hypoxanthine [2])
1 | UGAACG | 1.91 ± 0.034 | 1.823 ± 0.0083
2 | UGAACC | 1.9742 ± 0.00065 | 1.92 ± 0.057
3 | CGAACA | 1.94 ± 0.011 | 1.76 ± 0.015
4 | CGAACU | 1.93 ± 0.056 | 1.79 ± 0.018
5 | CGAACG | 1.96 ± 0.038 | 1.8 ± 0.035
6 | UCUGAC | 1.99 ± 0.031 | 1.8115 ± 0.00067
7 | UCUGAU | 1.94 ± 0.066 | 1.77 ± 0.096
8 | UCUGAG | 1.927 ± 0.0088 | 1.58 ± 0.035
9 | CCUUCU | 1.98 ± 0.08 | 1.95 ± 0.048
10 | CCUUCG | 1.88 ± 0.035 | 1.876 ± 0.0072
11 | CCUUCA | 1.97 ± 0.074 | 1.91 ± 0.04
12 | CCUUCC | 1.99 ± 0.033 | 1.963 ± 0.016
13 | CGAAAG | 1.94 ± 0.04 | 1.839 ± 0.0055
14 | UGAAGC | 1.925 ± 0.0097 | 1.807 ± 0.01
15 | UGAAGG | 1.83 ± 0.055 | 1.48 ± 0.062
16 | GGAAAC | 1.939 ± 0.018 | 1.84 ± 0.014
17 | GGAAAU | 1.9 ± 0.071 | 1.77 ± 0.053
18 | CCUGGC | 2.01 ± 0.037 | 1.924 ± 0.00087
19 | CCUGGA | 1.996 ± 0.0047 | 1.88 ± 0.02
20 | CCUGGU | 1.945 ± 0.014 | 1.88 ± 0.0076
21 | CCUGGG | 1.94 ± 0.027 | 1.508 ± 0.014
22 | ACUGCU | 1.91 ± 0.033 | 1.86 ± 0.037
23 | ACUGCC | 1.9853 ± 0.0019 | 1.89 ± 0.065
24 | UGAAAA | 1.921 ± 0.0047 | 1.836 ± 0.015

Row | Variant | normalized RNA/DNA level with ligand (log10) (hypoxanthine [1]) | normalized RNA/DNA level without ligand (log10) (hypoxanthine [2])
25 | UGAAAU | 1.907 ± 0.005 | 1.76 ± 0.005
26 | UGAAAG | 1.862 ± 0.017 | 1.72 ± 0.039
27 | AGAAAG | 1.82 ± 0.039 | 1.41 ± 0.029
28 | UCUUCA | 1.97 ± 0.11 | 1.8691 ± 0.00053
29 | UCUUCC | 2.022 ± 0.017 | 1.92 ± 0.024
30 | UCUUCU | 1.979 ± 0.0024 | 1.94 ± 0.099
31 | UCUUCG | 1.93 ± 0.086 | 1.7 ± 0.11
32 | GCUUCU | 1.996 ± 0.0049 | 1.94 ± 0.058
33 | GCUUCA | 1.966 ± 0.0076 | 1.898 ± 0.011
34 | GCUUCC | 1.963 ± 0.0026 | 1.833 ± 0.012
35 | GGAAGU | 1.91 ± 0.047 | 1.7 ± 0.02
36 | GCUUUU | 1.96 ± 0.011 | 1.831 ± 0.01
37 | GCUUGU | 1.93 ± 0.0067 | 1.72 ± 0.023
38 | GCUUGC | 1.96 ± 0.033 | 1.87 ± 0.048
39 | CCUGCA | 2.011 ± 0.0089 | 1.9 ± 0.041
40 | CCUGCC | 2.04 ± 0.026 | 2.01 ± 0.023
41 | CCUGCU | 2.02 ± 0.049 | 1.98 ± 0.08
42 | AGAAUA | 1.92 ± 0.012 | 1.77 ± 0.03
43 | UCUGGU | 1.96 ± 0.031 | 1.69 ± 0.084
44 | UCUGCC | 2.04 ± 0.021 | 1.89 ± 0.022
45 | UCUGCU | 1.968 ± 0.0085 | 1.924 ± 0.0035
46 | UCUGCG | 2.01 ± 0.08 | 1.73 ± 0.015
47 | UCUGCA | 1.92 ± 0.024 | 1.88 ± 0.059
48 | CCUUAU | 1.95 ± 0.014 | 1.93 ± 0.069

Row | Variant | normalized RNA/DNA level with ligand (log10) (hypoxanthine [1]) | normalized RNA/DNA level without ligand (log10) (hypoxanthine [2])
49 | CCUUAA | 1.96 ± 0.034 | 1.85 ± 0.038
50 | CCUUAG | 1.98 ± 0.025 | 1.72 ± 0.037
51 | CCUUAC | 1.94 ± 0.025 | 1.829 ± 0.0071
52 | CGAAGC | 1.948 ± 0.0063 | 1.811 ± 0.012
53 | CGAAGU | 1.93 ± 0.022 | 1.86 ± 0.046
54 | UGAAUA | 1.93 ± 0.026 | 1.86 ± 0.019
55 | UCUUAC | 1.94 ± 0.058 | 1.83 ± 0.044
56 | UCUUAU | 1.9468 ± 0.0014 | 1.84 ± 0.092
57 | UCUUAG | 1.93 ± 0.042 | 1.66 ± 0.017
58 | UCUUAA | 1.87 ± 0.047 | 1.83 ± 0.041
59 | ACUGUC | 1.99 ± 0.026 | 1.898 ± 0.0079
60 | ACUGUU | 1.9396 ± 0.00019 | 1.81 ± 0.05
61 | ACUGUA | 1.93 ± 0.062 | 1.78 ± 0.036
62 | CGAAUC | 1.98 ± 0.028 | 1.96 ± 0.042
63 | ACUUGU | 1.91 ± 0.086 | 1.77 ± 0.11
64 | ACUUGA | 1.935 ± 0.017 | 1.72 ± 0.027
65 | ACUUGG | 1.88 ± 0.029 | 1.38 ± 0.068
66 | ACUUGC | 1.9727 ± 0.00052 | 1.822 ± 0.0021
67 | ACUUUG | 1.91 ± 0.043 | 1.57 ± 0.021
68 | ACUUUU | 1.92 ± 0.044 | 1.868 ± 0.012
69 | ACUUUA | 1.903 ± 0.015 | 1.82 ± 0.067
70 | ACUUUC | 1.98 ± 0.046 | 1.95 ± 0.044
71 | CCUGAA | 1.98 ± 0.078 | 1.78 ± 0.075
72 | CCUGAC | 1.92 ± 0.1 | 1.83 ± 0.035

Row | Variant | normalized RNA/DNA level with ligand (log10) (hypoxanthine [1]) | normalized RNA/DNA level without ligand (log10) (hypoxanthine [2])
73 | CCUGAU | 1.909 ± 0.004 | 1.821 ± 0.013
74 | AGAAGU | 1.85 ± 0.034 | 1.51 ± 0.029
75 | AGAAGC | 1.918 ± 0.0099 | 1.7002 ± 0.0015
76 | GCUGCU | 1.92 ± 0.076 | 1.884 ± 0.013
77 | GCUGCC | 1.96 ± 0.15 | 1.83 ± 0.093
78 | GCUGCA | 1.98 ± 0.021 | 1.83 ± 0.034
79 | ACUGGC | 1.96 ± 0.036 | 1.844 ± 0.016
80 | ACUGGG | 1.859 ± 0.0034 | 1.44 ± 0.086
81 | GGAACC | 1.957 ± 0.0033 | 1.86 ± 0.021
82 | GGAACA | 1.942 ± 0.0069 | 1.764 ± 0.0065
83 | GGAACU | 1.93 ± 0.031 | 1.9403 ± 0.00023
84 | ACUUAC | 1.93 ± 0.046 | 1.84 ± 0.052
85 | ACUUAU | 1.9 ± 0.029 | 1.729 ± 0.014
86 | AGAACA | 1.91 ± 0.044 | 1.799 ± 0.0065
87 | AGAACU | 1.96 ± 0.035 | 1.83 ± 0.022
88 | GCUUAU | 1.98 ± 0.053 | 1.81 ± 0.019
89 | GCUUAC | 1.918 ± 0.0079 | 1.7 ± 0.11
90 | CCUUUA | 1.948 ± 0.019 | 1.84 ± 0.035
91 | CCUUUG | 1.96 ± 0.09 | 1.81 ± 0.076
92 | CCUUUU | 1.966 ± 0.019 | 1.892 ± 0.018
93 | CCUUUC | 2 ± 0.1 | 1.98 ± 0.046
94 | CCUGUC | 1.989 ± 0.006 | 1.987 ± 0.018
95 | CCUGUU | 2.04 ± 0.05 | 1.9 ± 0.14
96 | CCUUGA | 1.97 ± 0.09 | 1.86 ± 0.026

Row | Variant | normalized RNA/DNA level with ligand (log10) (hypoxanthine [1]) | normalized RNA/DNA level without ligand (log10) (hypoxanthine [2])
97 | CCUUGU | 1.93 ± 0.15 | 1.88 ± 0.041
98 | UCUGUU | 1.98 ± 0.035 | 1.88 ± 0.034
99 | UCUGUC | 1.96 ± 0.0083 | 1.956 ± 0.011
100 | UCUGUA | 1.95 ± 0.024 | 1.8296 ± 0.0016
101 | GCUGGU | 1.96 ± 0.034 | 1.824 ± 0.013
102 | GCUGGA | 1.904 ± 0.011 | 1.8 ± 0.074
103 | GCUGAC | 1.9 ± 0.034 | 1.63 ± 0.034
104 | GCUGAG | 1.85 ± 0.083 | 1.347 ± 0.012
105 | ACUUCC | 1.928 ± 0.015 | 1.923 ± 0.0089
106 | ACUUCU | 1.91 ± 0.12 | 1.889 ± 0.0063
107 | ACUUCA | 1.95 ± 0.025 | 1.922 ± 0.013
108 | UCUUGG | 1.92 ± 0.035 | 1.751 ± 0.008
109 | UCUUGC | 1.98 ± 0.1 | 1.9 ± 0.022
110 | UCUUGU | 1.91 ± 0.1 | 1.667 ± 0.0039
111 | GCUGUC | 1.913 ± 0.0099 | 1.84 ± 0.013
112 | GCUGUU | 1.99 ± 0.05 | 1.98 ± 0.058
113 | GCUGUA | 1.9622 ± 0.0015 | 1.901 ± 0.014
114 | UCUUUG | 1.95 ± 0.033 | 1.73 ± 0.043
115 | UCUUUU | 1.95 ± 0.086 | 1.947 ± 0.0056
116 | UCUUUC | 2.01 ± 0.052 | 1.99 ± 0.068
